Results as given in PMC5025769, “A highly efficient sorbitol dehydrogenase from Gluconobacter oxydans G624 and improvement of its stability through immobilization” (Scientific Reports, 2016).

Key:
[1] = target: T1, GoSLDH (sorbitol dehydrogenase) (Gluconobacter oxydans, UniProt Q9KWR5); assay: substrate specificity assay at […]; format: biochemical
T1 construct: purified 6x His-tagged recombinant GoSLDH
T1 sequence (Q9KWR5 1-485): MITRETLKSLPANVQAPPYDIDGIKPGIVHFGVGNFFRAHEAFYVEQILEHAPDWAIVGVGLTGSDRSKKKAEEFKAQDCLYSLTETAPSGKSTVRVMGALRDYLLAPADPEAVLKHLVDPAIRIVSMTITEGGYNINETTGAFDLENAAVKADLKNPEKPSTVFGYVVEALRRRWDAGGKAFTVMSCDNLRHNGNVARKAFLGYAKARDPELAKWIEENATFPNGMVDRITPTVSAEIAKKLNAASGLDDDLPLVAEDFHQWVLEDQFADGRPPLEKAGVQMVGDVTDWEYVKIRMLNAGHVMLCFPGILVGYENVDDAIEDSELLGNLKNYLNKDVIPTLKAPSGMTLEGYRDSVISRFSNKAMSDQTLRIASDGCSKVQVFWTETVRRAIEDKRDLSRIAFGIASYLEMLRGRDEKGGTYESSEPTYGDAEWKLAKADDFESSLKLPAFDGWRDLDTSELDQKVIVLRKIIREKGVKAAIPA

[2] = target: T2, PfMDH (mannitol dehydrogenase) (Pseudomonas fluorescens, UniProt O08355, K295Q); assay: isothermal titration calorimetry, […] °C; format: binding
T2 construct: gene mtlD

[3] = target: GoSLDH (sorbitol dehydrogenase) (Gluconobacter oxydans, UniProt Q9KWR5, K294Q); assay: isothermal titration calorimetry, […] °C; format: binding
purified protein [4] = substrate: NC(=O)c1ccc[n+]([C@@H]2O[C@H](COP(=O)(O)OP(=O)(O)OC[C@H]3O[C@@H](n4cnc5c(N)ncnc54)[C@H](OP(=O)(O)O)[C@@H]3O)[C@@H](O)[C@H]2O)c1; assay: purified protein; settings: varied: cofactor
[5] = target: the molecule itself; assay: SEC; Bio-Sil SEC-250 column (300 x 7.8 mm) on HPLC; mobile phase pH 6.8, 50 mM Na2HPO4, 50 mM NaH2PO4, 50 mM NaCl, 10 mM NaN3; 1.0 mL/min; quaternary structure from comparison of molecular weights by HPLC and SDS-PAGE
purified protein [6] = substrate: OC[C@@H](O)[C@@H](O)[C@H](O)[C@@H](O)CO; assay: purified protein; format: biochemical, Gluconobacter oxydans; settings: NADP^+

T2 sequence (O08355 entry or part of it K295Q): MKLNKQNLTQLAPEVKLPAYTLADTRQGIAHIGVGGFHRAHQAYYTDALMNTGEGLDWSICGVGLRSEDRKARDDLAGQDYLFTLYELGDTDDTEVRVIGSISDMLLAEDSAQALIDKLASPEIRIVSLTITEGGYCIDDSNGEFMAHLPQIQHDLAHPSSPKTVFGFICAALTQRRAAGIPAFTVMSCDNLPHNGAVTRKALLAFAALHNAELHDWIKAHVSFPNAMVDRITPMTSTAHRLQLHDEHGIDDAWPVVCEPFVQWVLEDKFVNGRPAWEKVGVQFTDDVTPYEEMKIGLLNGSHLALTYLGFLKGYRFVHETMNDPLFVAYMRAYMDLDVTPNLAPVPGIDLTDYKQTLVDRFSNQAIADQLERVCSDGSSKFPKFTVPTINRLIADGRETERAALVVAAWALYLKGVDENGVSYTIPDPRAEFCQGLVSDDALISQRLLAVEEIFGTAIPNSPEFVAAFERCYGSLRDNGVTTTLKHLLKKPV

In the case of `OC[C@@H](O)[C@@H](O)[C@H](O)[C@H](O)CO` [mannitol], the “substrate specificity assay at 200 mM” value [1] is reported as “GoSLDH is highly specific towards D-sorbitol, mannitol, and D-arabinitol (Table S2)”.

With `OC[C@@H](O)[C@@H](O)[C@H](O)[C@@H](O)CO` [D-sorbitol] the Kd [2] was 278 µM and the Kd [3] was 96 µM.

B1: sorbitol dehydrogenase (GoSLDH) from Gluconobacter oxydans G624 (enzyme, UniProt Q9KWR5 1-485, looked up)
chain: MITRETLKSLPANVQAPPYDIDGIKPGIVHFGVGNFFRAHEAFYVEQILEHAPDWAIVGVGLTGSDRSKKKAEEFKAQDCLYSLTETAPSGKSTVRVMGALRDYLLAPADPEAVLKHLVDPAIRIVSMTITEGGYNINETTGAFDLENAAVKADLKNPEKPSTVFGYVVEALRRRWDAGGKAFTVMSCDNLRHNGNVARKAFLGYAKARDPELAKWIEENATFPNGMVDRITPTVSAEIAKKLNAASGLDDDLPLVAEDFHQWVLEDQFADGRPPLEKAGVQMVGDVTDWEYVKIRMLNAGHVMLCFPGILVGYENVDDAIEDSELLGNLKNYLNKDVIPTLKAPSGMTLEGYRDSVISRFSNKAMSDQTLRIASDGCSKVQVFWTETVRRAIEDKRDLSRIAFGIASYLEMLRGRDEKGGTYESSEPTYGDAEWKLAKADDFESSLKLPAFDGWRDLDTSELDQKVIVLRKIIREKGVKAAIPA
notes: sorbitol dehydrogenase (SLDH) of Gluconobacter oxydans G624; complete 1455-bp codon-optimized gene; molecular mass 53.64 kDa by SDS-PAGE; The abstract speaks of the complete 1455-bp gene, the methods of 1.458 kb; also called recombinant GoSLDH; polyol-specific long-chain dehydrogenase from G. oxydans G624; source: E. coli BL21 (DE3)-CodonPlus RIL, pET-28(a), purified (Ni-NTA Superflow column)
B1 was tested, and the Km (purified protein [4]) was 0.0882 mM, the “stoichiometry N” value [5] was 2 and the Km (purified protein [6]) was 38.9 mM. The kcat (purified protein [6]) was 3820 s⁻¹ and the kcat/Km (purified protein [6]) was 98100 M⁻¹ s⁻¹.
